Source: PMC2661055, “The C-terminal sequence of the large hepatitis delta antigen is variable but retains the ability to bind clathrin” (Virology Journal, 2009)

T1: GST-LDII_(C(198–210)) (GST fused to amino acids 198-210 of genotype II LDAg) (hepatitis delta virus genotype II …)
T1 construct: amino acids 198-210 of the large delta antigen of HDV genotype II, Taiwan-3 strain, GenBank U19598; Inserted downstream of GST in pGEX-4T1 by EcoRI and SalI; also called 13-amino-acid peptide of genotype II LDAg; source: E. coli BL21 (DE3), purified (glutathione beads); not shown: GST, N-terminal, kept
T1 chain: GPSPPQQRLPLLE

B1: 6XHis-CHC_((1–107)) (hexahistidine-tagged fragment, amino acids 1 to 107, of human clathrin heavy chain) (domain or fragment, UniProt Q00610 1-107, looked up)
chain: MAQILPIRFQEHLQLQNLGINPANIGFSTLTMESDKFICIREKVGEQAQVVIIDMNDPSNPIRRPISADSAIMNPASKVIALKAGKTLQIFNIEMKSKMKAHTMTDD
notes: human clathrin heavy chain, amino acids 1 to 107, cDNA amplified by RT-PCR and inserted downstream of the hexahistidine tag of pET-15b; also called fragment of CHC; 107-amino-acid peptide of CHC; source: E. coli BL21 (DE3), purified (nickel beads); not shown: His6, N-terminal, kept
B2: GST-LDIII_(C(198–210)) (GST fused to amino acids 198-210 of genotype III LDAg) (domain or fragment)
chain: FTPPPPGYYWVPG
notes: amino acids 198-210 of the large delta antigen of HDV genotype III, Peru-1 strain, GenBank L22063; Inserted downstream of GST in pGEX-4T1 by EcoRI and SalI; also called 13-amino-acid peptide of genotype III LDAg; source: E. coli BL21 (DE3), purified (glutathione beads); not shown: GST, N-terminal, kept
B3: clathrin heavy chain (full-length, endogenous in HuH-7 cells) (natural protein, human (endogenous in HuH-7), UniProt Q00610 1-1675, looked up)
chain: MAQILPIRFQEHLQLQNLGINPANIGFSTLTMESDKFICIREKVGEQAQVVIIDMNDPSNPIRRPISADSAIMNPASKVIALKAGKTLQIFNIEMKSKMKAHTMTDDVTFWKWISLNTVALVTDNAVYHWSMEGESQPVKMFDRHSSLAGCQIINYRTDAKQKWLLLTGISAQQNRVVGAMQLYSVDRKVSQPIEGHAASFAQFKMEGNAEESTLFCFAVRGQAGGKLHIIEVGTPPTGNQPFPKKAVDVFFPPEAQNDFPVAMQISEKHDVVFLITKYGYIHLYDLETGTCIYMNRISGETIFVTAPHEATAGIIGVNRKGQVLSVCVEEENIIPYITNVLQNPDLALRMAVRNNLAGAEELFARKFNALFAQGNYSEAAKVAANAPKGILRTPDTIRRFQSVPAQPGQTSPLLQYFGILLDQGQLNKYESLELCRPVLQQGRKQLLEKWLKEDKLECSEELGDLVKSVDPTLALSVYLRANVPNKVIQCFAETGQVQKIVLYAKKVGYTPDWIFLLRNVMRISPDQGQQFAQMLVQDEEPLADITQIVDVFMEYNLIQQCTAFLLDALKNNRPSEGPLQTRLLEMNLMHAPQVADAILGNQMFTHYDRAHIAQLCEKAGLLQRALEHFTDLYDIKRAVVHTHLLNPEWLVNYFGSLSVEDSLECLRAMLSANIRQNLQICVQVASKYHEQLSTQSLIELFESFKSFEGLFYFLGSIVNFSQDPDVHFKYIQAACKTGQIKEVERICRESNCYDPERVKNFLKEAKLTDQLPLIIVCDRFDFVHDLVLYLYRNNLQKYIEIYVQKVNPSRLPVVIGGLLDVDCSEDVIKNLILVVRGQFSTDELVAEVEKRNRLKLLLPWLEARIHEGCEEPATHNALAKIYIDSNNNPERFLRENPYYDSRVVGKYCEKRDPHLACVAYERGQCDLELINVCNENSLFKSLSRYLVRRKDPELWGSVLLESNPYRRPLIDQVVQTALSETQDPEEVSVTVKAFMTADLPNELIELLEKIVLDNSVFSEHRNLQNLLILTAIKADRTRVMEYINRLDNYDAPDIANIAISNELFEEAFAIFRKFDVNTSAVQVLIEHIGNLDRAYEFAERCNEPAVWSQLAKAQLQKGMVKEAIDSYIKADDPSSYMEVVQAANTSGNWEELVKYLQMARKKARESYVETELIFALAKTNRLAELEEFINGPNNAHIQQVGDRCYDEKMYDAAKLLYNNVSNFGRLASTLVHLGEYQAAVDGARKANSTRTWKEVCFACVDGKEFRLAQMCGLHIVVHADELEELINYYQDRGYFEELITMLEAALGLERAHMGMFTELAILYSKFKPQKMREHLELFWSRVNIPKVLRAAEQAHLWAELVFLYDKYEEYDNAIITMMNHPTDAWKEGQFKDIITKVANVELYYRAIQFYLEFKPLLLNDLLMVLSPRLDHTRAVNYFSKVKQLPLVKPYLRSVQNHNNKSVNESLNNLFITEEDYQALRTSIDAYDNFDNISLAQRLEKHELIEFRRIAAYLFKGNNRWKQSVELCKKDSLYKDAMQYASESKDTELAEELLQWFLQEEKRECFGACLFTCYDLLRPDVVLETAWRHNIMDFAMPYFIQVMKEYLTKVDKLDASESLRKEEEQATETQPIVYGQPQLMLTAGPSVAVPPQAPFGYGYTAPPYGQPQPGFGYSM
notes: clathrin heavy chain, endogenous in the human hepatoma cell line HuH-7, detected with anti-clathrin heavy chain; also called CHC; source: endogenous, HuH-7 lysate

Tests used:
[1] = biological target: EGFP-LDII (EGFP fused to full-length large hepatitis delta antigen of HDV genotype II, Taiwan-3 strain) (hepatitis delta virus genotype II (Taiwan-3 strain)); test: co-IP; HuH-7 cells transfected with pEGFP-C3 or pEGFP-LD plasmids, TNF-α (30 ng/ml) for 2 h at 24 h post-transfection; lysate precipitated with anti-GFP, blot for CHC; CHC normalised to actin, genotype I set to 1, mean of three experiments
[2] = biological target: EGFP-LDIII (EGFP fused to full-length large hepatitis delta antigen of HDV genotype III, Peru-1 strain) (hepatitis delta virus genotype III (Peru-1 strain)); test: as above
[3] = biological target: T1, GST-LDII_(C(198–210)) (GST fused to …); test: pull-down; GST or GST-LD_(C(198–210)) on Glutathione Sepharose 4B beads incubated with E. coli produced, purified 6XHis-CHC_((1–107)) for 16 h at 4°C; three washes with 0.05% Tween-20 in PBS; SDS-PAGE, silver stain; mean of three experiments; details: both partners purified
[4] = biological target: B2; test: as above; details: both partners purified
[5] = biological target: B1; test: as above; details: both partners purified
[6] = biological target: T1, GST-LDII_(C(198–210)) (GST fused to …); test: pull-down; GST or GST-LD_(C(198–210)) on Glutathione Sepharose 4B beads incubated with HuH-7 cell lysate for 16 h at 4°C; three washes with 0.05% Tween-20 in PBS; blot for CHC; mean of three experiments; details: one partner purified
[7] = biological target: B2; test: as above; details: one partner purified

clathrin heavy chain (full-length, endogenous in HuH-7 cells) (from UniProt Q00610 1-1675) (natural protein)
amount of CHC co-precipitated, ratio to EGFP-LDI (fold of EGFP-LDI) [1]: 2.6 | amount of CHC co-precipitated, ratio to EGFP-LDI (fold of EGFP-LDI) [2]: 2.2

B1
amount of CHC fragment pulled down, ratio to GST-LDI_(C(198–210)) [3]: 1.4 fold of GST-LDI_(C(198–210)) | amount of CHC fragment pulled down, ratio to GST-LDI_(C(198–210)) [4]: 0.7 fold of GST-LDI_(C(198–210))

B2
binding result [5]: binds

B3
normalized amount of CHC bound, ratio to genotype I [6]: 1.6 fold of genotype I | normalized amount of CHC bound, ratio to genotype I [7]: 1.3 fold of genotype I
